Results as given in publication PMC10154330, “Machine learning-driven multifunctional peptide engineering for sustained ocular drug delivery” (Nature Communications, 2023).
Where two headings read alike, the source gives them in different places. One block for each molecule: values may come before it. Peptide text beside a SMILES is read from it. * marks the point of attachment. X1 = CC(C)[C@H](NC(=O)CCCCCN1C(=O)CC(*)C1=O)C(=O)N[C@@H](CCCNC(N)=O)C(=O)Nc1ccc(C[N+]2=C(Nc3ccc4nccnc4c3Br)NCC2)cc1

How the values were obtained:
[1] = tested on: melanin nanoparticles (mNPs); assay: In vitro melanin binding assay (binding capacity and Kd, RED device, HPLC); design: species or system Sepia officinalis; details: for Binding Capacity (mole/mg melanin) / Kd: binding capacity and dissociation constant of ocular drugs, melanin
Description: The solutions (400 µL) were then mixed thoroughly with 400 µL of 1 mg/mL mNPs in pH 6.5 PBS solution and transferred to the inner reservoir of the rapid equilibrium dialysis (RED) device inserts (8 K MWCO). The outer reservoir was filled with 800 µL of pH 6.5 PBS solution. The samples were incubated on an orbital shaker with temperature control at 37 °C and 300 rpm for 48 h (n = 3). The solutions from outer reservoir (free drug) were than collected and transferred to an autosampler vial for HPLC analysis (Prominence LC2030, Shimadzu, Columbia, MD) with photodiode-array detection (PDA) system. […] The amount of bound drug was used to calculate the binding capacity (mol drug/mg melanin) and the dissociation constant (Kd) as previously described[20],[34].

[2] = In vitro stability of HR97-brimonidine conjugate in human aqueous or vitreous; type: in vitro ADME; details: for remaining at 24 h, 1 mg/mL / remaining at 168 h, 1 mg/mL / remaining at 336 h, 1 mg/mL / remaining at 672 h, 1 mg/mL: male, human, human aqueous humor (donor eyes, 0.02 µm filtered), stability in human aqueous humor, read-out: Normalized HR97-VC-PAB-brimonidine (%)
Description: Two pairs of human donor eyes were obtained from the Lions Gift of Sight under protocol IRB00056984 approved by the Johns Hopkins University School of Medicine Institutional Review Board. Both donors were male with an mean age of 74.5. The post-mortem times ranged from 35–40 h. The eyes were kept at 4 °C during transport and arrived within 48 h post-mortem. The vitreous and aqueous were first isolated and subsequently combined and filtered through the 0.02 µm syringe filter to remove cell debris. HR97-brimonidine (1 mg/mL) was incubated with human aqueous or vitreous (700 µL) at 37 °C (n = 3). On days 0, 1, 7, 14, 21 and 28, 100 µL of the solutions were collected, diluted with 900 µL of acetonitrile, and characterized by HPLC (Prominence LC2030, Shimadzu) with Luna® 5 µm C18(2) 100 Å LC column 250 × 4.6 mm (Phenomenex). The elution flow rate was 1 mL/min and with gradient of 10/90/90/10% solvent B (TFA 0.1% in ACN) in 1/11/13/15 min at λmax = 250 nm for HR97-brimonidine (RT = 4.6 min).

[3] = tested on: intraocular pressure; assay: IOP measurement in normotensive Dutch Belted rabbits; type: in vivo
Description: (§1) For the IOP measurements in normotensive rabbits, Dutch Belted rabbits (2–3 kg) were used (n = 5). IOP was measured with a hand-held rebound tonometer icareTONOVET (Vantaa, Finland) in the awake and gently restrained rabbit. Each rabbit was acclimatized to the IOP measurement procedure for at least 5 days to obtain a stable background IOP reading. A mean of three IOP measurements for an individual eye were taken every other day for 6 days (3 times in total) and used as a baseline value. For the ICM injection procedure, rabbits were anesthetized with ketamine/xylazine and received topical anesthesia with 0.5% proparacaine hydrochloride. A corneal pre-puncture was performed with a 30 G needle, followed with a single bolus ICM injection of 200 µg (mass of brimonidine) of HR97-brimonidine or brimonidine tartrate solution in 100 µL saline using a 28 G needle. After the procedure, topical bacitracin-neomycin-polymyxin ophthalmic ointment was applied to both eyes to prevent infection and dry eyes. On day 7, an ophthalmologist masked to treatment evaluate the HR97-brimonidine injected eyes with the following items: functionality of lids, lashes, conjunctiva, cornea transparency, pigmentation of corneal endothelium, depth of anterior chambers, inflammation, fibrin strands, and symmetry of the lens[113]. […] In a separate study, a corneal pre-puncture was performed with a 30 G needle, followed with a single bolus ICM injection of 200 µg (mass of brimonidine) containing a physical mixture of unconjugated HR97 and brimonidine tartrate (HR97 + brimonidine), the equivalent amount of HR97 peptide alone, or saline alone in 100 µL saline. On day 7, day 14, day 21, and day 28, an ophthalmologist masked to treatment performed the same safety evaluations described above. IOP was measured on days 2, 3, 4, 5, 6, 7, 8, 10, 12, 14, 16, 18, and 20 after the ICM injection, and change in IOP from the baseline (ΔIOP) was reported. The mean of three IOP measurements was taken for each eye by one observer, and then confirmed by a masked observer. Alternatively, a single topical eye drop (Alphagan® P 0.1%, 50 µL) was given (n = 5). The IOP were measured immediately before the topical dosing (0 h), and at 2, 4, 6 and 8 h after the eyedrop administration. For the pharmacokinetics studies, rabbits (n = 4 per group) received a single ICM injection with 200 µg (mass of brimonidine) HR97-brimonidine as described above. Rabbits were sacrificed 1, 7, 14, 28 days after the injection, and iris, aqueous, and retina were collected for measuring the brimonidine concentration.

[4] = Ocular safety evaluation / ocular grading after ICM injection; details: single ICM injection, 200 µg brimonidine equivalent
Description: as §1

[5] = Brimonidine in ocular tissues after ICM injection (LC-MS/MS); details: LC-MS/MS
Description: as §1
Brimonidine concentrations in ocular tissues were measured by liquid chromatography-tandem mass spectrometry (LC-MS/MS) as previously described. All samples were collected in pre-weighed tubes and stored at −80 °C until processing for analysis. Tissue samples were homogenized in 100–600 μL 1 × PBS using a Bullet Blender® (Next Advance, Inc, Troy, NY, USA) before extraction. Brimonidine were extracted from 15 to 50 μL of tissue homogenates with 50 μL of acetonitrile containing 50/50/2.5 ng/mL of the internal standards. The top layer was then transferred to an autosampler vial for LC-MS/MS analysis after centrifugation. All ocular tissue samples were analyzed using a 1 × PBS standard curve for brimonidine. […] The column effluent was monitored using a 5500 mass-spectrometric detector (Sciex) using electrospray ionization operating in positive mode. The mobile phase A was water containing 0.1% formic acid and mobile phase B was acetonitrile containing 0.1% formic acid. The gradient started with mobile phase B held at 20% for 0.5 min and increased to 100% over 0.5 min; 100% mobile phase B was held for 1 min and then returned to 20% mobile phase B and allowed to equilibrate for 1 min.

[6] = tested on: human cathepsins B, K, L, and S; assay: Cathepsin cleavage assay
[7] = 28 days after single ICM injection of HR97-brimonidine (200 µg brimonidine equivalent), n = 3-4

Molecule: CC(C)[C@H](NC(=O)CCCCCN1C(=O)CC(SC[C@H](NC(=O)[C@H](CCCNC(=N)N)NC(=O)[C@@H]2CCCN2C(=O)[C@H](CCCCN)NC(=O)[C@H](CCCNC(=N)N)NC(=O)[C@H](CCCCN)NC(=O)[C@H](CCCNC(=N)N)NC(=O)[C@H](CCCNC(=N)N)NC(=O)[C@H](CCCCN)NC(=O)CNC(=O)[C@H](CO)NC(=O)[C@@H](N)Cc2ccccc2)C(=O)O)C1=O)C(=O)N[C@@H](CCCNC(N)=O)C(=O)Nc1ccc(C[N+]2=C(Nc3ccc4nccnc4c3Br)NCC2)cc1 (stereo partly shown) [HR97-VC-PAB-brimonidine] (H-FSGKRRKRKPRC(X1)-OH; N-terminus and C-terminus assumed)
remaining at 24 h, 1 mg/mL ([2]; day 1, replicate 1): 99.1%
remaining at 24 h, 1 mg/mL ([2]; day 1, replicate 2): 93.5%
remaining at 24 h, 1 mg/mL ([2]; day 1, replicate 3): 95.5%
remaining at 168 h, 1 mg/mL ([2]; day 7, replicate 1): 90.8%
remaining at 168 h, 1 mg/mL ([2]; day 7, replicate 2): 101%
remaining at 168 h, 1 mg/mL ([2]; day 7, replicate 3): 96.4%
remaining at 336 h, 1 mg/mL ([2]; day 14, replicate 1): 92.6%
remaining at 336 h, 1 mg/mL ([2]; day 14, replicate 2): 95.3%
remaining at 336 h, 1 mg/mL ([2]; day 14, replicate 3): 93.9%
remaining at 672 h, 1 mg/mL ([2]; day 28, replicate 1): 88.5%
remaining at 672 h, 1 mg/mL ([2]; day 28, replicate 2): 95%
remaining at 672 h, 1 mg/mL ([2]; day 28, replicate 3): 92.3%

Molecule: CC12CC3CC(C)(C1)CC(N)(C3)C2 [Memantine]
Binding Capacity (mole/mg melanin) [1]: 2.07e-7 mole/mg melanin
Kd [1]: 804 µM

Molecule: FSGKRRKRKPRC [HR97-brimonidine]
Binding Capacity (mole/mg melanin) [1]: 5.9e-7 mole/mg melanin
Kd [1]: 4.36 µM
increase in the in vitro melanin binding capacity of brimonidine by conjugation to HR97 ([1]; versus brimonidine): ~ 10 fold
brimonidine released from the conjugate in human aqueous fluid ([2]; 1 mg/mL in human aqueous (donor eyes, 0.02 µm filtered), 37 °C, over 28 days, HPLC 250 nm, normalized to day 0, mean of n = 3): ~ 7%
AUClast of cumulative ΔIOP, fold greater compared to brimonidine solution ([3]; 20-day measurement period after ICM injection, n = 5, p < 0.001): ~ 17 fold
time during which mean ΔIOP remained significantly larger than with brimonidine solution or physical mixture ([3]; single ICM injection): up to 14 days
peak ΔIOP at 2 days ([3]; single ICM injection, 200 µg brimonidine equivalent, n = 5): −4.9 ± 0.46 mmHg
time for the mean ΔIOP to return to baseline ([3]; single ICM injection, n = 5 per group): 20 days
duration of IOP lowering ([3]; single ICM injection, normotensive rabbits): up to 18 days
ocular toxicity, ophthalmologist evaluation on day 7 [4]: no apparent inflammation or fibrin strands
brimonidine concentration in aqueous humor [5, 7]: 0.4 ng/g
brimonidine concentration in iris [5, 7]: 980 ng/g
brimonidine concentration in retina [5, 7]: 8.3 ng/g
brimonidine concentration in the aqueous ([5]; day 7 after single ICM injection of HR97-brimonidine): 83.3 ng/g
brimonidine concentration in the aqueous ([5]; day 14 after single ICM injection of HR97-brimonidine): 3.9 ng/g
cathepsin cleavage assay, Cathepsin ([6]; replicate 1): 47
cathepsin cleavage assay, Cathepsin ([6]; replicate 2): 58
cathepsin cleavage assay, Cathepsin ([6]; replicate 3): 42
brimonidine liberated with human cathepsin cocktails ([6]; conjugate 200 μM diluted 1:1 with 100 mM citrate buffer pH 5.5, 5 mM cysteine, cathepsins B, K, L, S 150 nM each, within 48 h, 37 °C, HPLC, normalized to 0 h, n = 3): ~ 52%

More lines, now with the values ahead:

Binding Capacity (mole/mg melanin) [1]: 3.8e-7 mole/mg melanin
Kd [1]: 76 µM
Molecule: CCN(CC)CCCC(C)Nc1ccnc2cc(Cl)ccc12 (stereo not shown) [Chloroquine]

Binding Capacity (mole/mg melanin) [1]: 2.69E-08 mole/mg melanin
Kd [1]: 495 µM
Molecule: COCCc1ccc(OCC(O)CNC(C)C)cc1 (stereo not shown) [Metoprolol]

Binding Capacity (mole/mg melanin) [1]: 2.61e-6 mole/mg melanin
Kd [1]: 2.13 µM
Molecule: CCNCCNC(=O)c1c(C)[nH]c(/C=C2\C(=O)Nc3ccc(F)cc32)c1C [N-Desethyl Sunitinib]

Binding Capacity (mole/mg melanin) [1]: 3.9e-8 mole/mg melanin
Kd [1]: 120 µM
Molecule: CC(C)(C)NC[C@H](O)COc1nsnc1N1CCOCC1 [Timolol]

Binding Capacity (mole/mg melanin) [1]: 2.24E-08 mole/mg melanin
Kd [1]: 12.5 µM
Molecule: CC1(C)O[C@@H]2C[C@H]3[C@@H]4CCC5=CC(=O)C=C[C@]5(C)[C@@]4(F)[C@@H](O)C[C@]3(C)[C@]2(C(=O)CO)O1 [Triamcinolone Acetonide]
